The values that follow come from publication PMC3859839.

Read-outs that look alike come from different tables or passages of the source.

Common to all, as to experiment: fluorescence anisotropy
For series [1], the target named is T1, PsaR wild-type (Streptococcus pneumoniae D39, UniProt A0A0H2ZQ59 1-216).
Series [2] concerns the target PsaR D7A (Streptococcus pneumoniae D39, UniProt A0A0H2ZQ59 1-216, D7A).
For series [3], the target named is PsaR E99A (Streptococcus pneumoniae D39, UniProt A0A0H2ZQ59 1-216, E99A).
Series [4] addresses T1, PsaR wild-type. The source holds these as a separate data set.
The target in series [5] is PsaR H76F (Streptococcus pneumoniae D39, UniProt A0A0H2ZQ59 1-216, H76F).
In series [6] the target is PsaR D160A (Streptococcus pneumoniae D39, UniProt A0A0H2ZQ59 1-216, D160A).
Series [7] concerns the target PsaR H76A (Streptococcus pneumoniae D39, UniProt A0A0H2ZQ59 1-216, H76A).
Series [8] concerns the target PsaR H125A (Streptococcus pneumoniae D39, UniProt A0A0H2ZQ59 1-216, H125A).
Series [9] concerns the target T1, PsaR wild-type. This is another data set of the same source.

B1: PsaO (psaBCA operator) (dsDNA)
DNA 1: TTCAAAAATTAACTTGACTTAATTTTTTTT
DNA 2: AAAAAAAATTAAGTCAAGTTAATTTTTGAA
Consider B1, for which the Ka is 8.02 ± 0.03 log10 M-1 in series [1]; 7.22 ± 0.03 log10 M-1 in series [2]; 9.27 ± 0.05 log10 M-1 in [3]; 10.6 ± 0.1 log10 M-1 in [4]; 8.54 ± 0.06 log10 M-1 in series [5]; 9.8 ± 0.1 log10 M-1 in series [6]. The Ka is 9.6 ± 0.1 log10 M-1 in series [7], 10.4 ± 0.1 log10 M-1 in [8] and 10.1 ± 0.1 log10 M-1 in series [9].
